What all share (experiment): fluorescence polarisation; 1 μM FMI-labeled hPNPO in a 96-well plate, B6 enzymes added at 0 to 20 μM, incubated at 25 °C for 5 h; excitation 495 nm, emission 535 nm; curves fitted to a simple 1:1 model
Holding throughout (details): both partners purified
On the technique in general: In fluorescence polarisation assays a small probe gives low polarisation when free and higher when bound to something large.

Test [1] addresses T1, E. coli serine hydroxymethyltransferase (eSHMT) (E. coli, UniProt P0A825 1-417).
T1 construct: E. coli serine hydroxymethyltransferase; also called E. coli SHMT
T1 sequence (looked up): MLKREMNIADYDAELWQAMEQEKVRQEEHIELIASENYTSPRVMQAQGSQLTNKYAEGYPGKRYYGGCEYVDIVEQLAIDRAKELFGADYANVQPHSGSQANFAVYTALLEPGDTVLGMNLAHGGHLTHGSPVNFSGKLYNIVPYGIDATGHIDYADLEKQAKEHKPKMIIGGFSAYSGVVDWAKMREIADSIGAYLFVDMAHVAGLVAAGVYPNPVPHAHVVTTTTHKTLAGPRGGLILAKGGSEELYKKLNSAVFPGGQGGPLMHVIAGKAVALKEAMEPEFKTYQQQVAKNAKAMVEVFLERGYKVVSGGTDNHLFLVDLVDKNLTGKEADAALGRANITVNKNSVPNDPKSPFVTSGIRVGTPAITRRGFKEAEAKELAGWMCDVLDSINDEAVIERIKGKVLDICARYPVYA

Test [2] deals with T2, E. coli aspartate aminotransferase (eAATase) (E. coli, UniProt P00509 1-396).
T2 construct: E. coli aspartate aminotransferase
T2 sequence (looked up): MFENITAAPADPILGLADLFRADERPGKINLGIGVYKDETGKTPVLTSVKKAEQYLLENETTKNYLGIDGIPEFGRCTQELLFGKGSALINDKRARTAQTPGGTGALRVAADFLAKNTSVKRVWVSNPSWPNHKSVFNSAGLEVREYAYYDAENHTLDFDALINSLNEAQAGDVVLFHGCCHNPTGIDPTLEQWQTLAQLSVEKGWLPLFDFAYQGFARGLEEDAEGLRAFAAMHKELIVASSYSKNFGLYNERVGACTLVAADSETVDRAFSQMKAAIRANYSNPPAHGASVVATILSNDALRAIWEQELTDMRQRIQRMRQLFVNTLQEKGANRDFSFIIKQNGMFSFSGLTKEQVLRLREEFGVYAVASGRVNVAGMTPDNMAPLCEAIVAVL

In test [3] the target is T3, E. coli L-threonine aldolase (eL-TA) (E. coli, UniProt P75823 1-333).
T3 construct: E. coli L-threonine aldolase
T3 sequence (looked up): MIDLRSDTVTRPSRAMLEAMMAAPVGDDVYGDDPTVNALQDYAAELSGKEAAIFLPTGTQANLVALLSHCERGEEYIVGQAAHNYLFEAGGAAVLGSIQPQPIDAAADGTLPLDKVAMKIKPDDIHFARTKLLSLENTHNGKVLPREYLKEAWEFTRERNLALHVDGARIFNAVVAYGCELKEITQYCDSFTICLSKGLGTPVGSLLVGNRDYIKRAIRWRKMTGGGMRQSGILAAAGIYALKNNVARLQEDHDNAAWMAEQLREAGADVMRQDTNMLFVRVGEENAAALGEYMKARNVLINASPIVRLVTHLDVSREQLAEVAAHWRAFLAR

Test [4] addresses T4, rabbit cytosolic serine hydroxymethyltransferase (rcSHMT) (rabbit, UniProt P07511 1-484).
T4 construct: rabbit cytosolic serine hydroxymethyltransferase; In the PLP transfer experiments the apo form (PLP removed with D-alanine) was used; the fluorescence polarization text names rcSHMT without saying apo or holo; also called apo-rcSHMT; apo-SHMT
T4 sequence (looked up): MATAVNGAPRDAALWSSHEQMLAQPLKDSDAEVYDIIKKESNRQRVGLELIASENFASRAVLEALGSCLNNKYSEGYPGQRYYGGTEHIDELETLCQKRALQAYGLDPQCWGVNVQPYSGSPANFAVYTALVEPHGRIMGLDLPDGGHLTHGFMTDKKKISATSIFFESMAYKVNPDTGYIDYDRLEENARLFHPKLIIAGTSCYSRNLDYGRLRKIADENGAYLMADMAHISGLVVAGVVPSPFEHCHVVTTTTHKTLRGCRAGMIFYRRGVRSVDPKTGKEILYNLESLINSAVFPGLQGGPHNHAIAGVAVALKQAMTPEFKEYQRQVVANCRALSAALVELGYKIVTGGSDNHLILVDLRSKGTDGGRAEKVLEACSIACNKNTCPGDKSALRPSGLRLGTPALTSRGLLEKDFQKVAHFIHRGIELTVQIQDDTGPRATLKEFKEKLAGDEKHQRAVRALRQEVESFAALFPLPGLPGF

The results in this text go back to PMC4856418, “Inactive mutants of human pyridoxine 5′‐phosphate oxidase: a possible role for a noncatalytic pyridoxal 5′‐phosphate tight binding site” (FEBS Open Bio, 2016).

B1: wild-type human pyridoxine 5′-phosphate oxidase (hPNPO) (enzyme)
chain: MTCWLRGVTATFGRPAEWPGYLSHLCGRSAAMDLGPMRKSYRGDREAFEETHLTSLDPVKQFAAWFEEAVQCPDIGEANAMCLATCTRDGKPSARMLLLKGFGKDGFRFFTNFESRKGKELDSNPFASLVFYWEPLNRQVRVEGPVKKLPEEEAECYFHSRPKSSQIGAVVSHQSSVIPDREYLRKKNEELEQLYQDQEVPKPKSWGGYVLYPQVMEFWQGQTNRLHDRIVFRRGLPTGDSPLGPMTHRGEEDWLYERLAP
modifications: labelled with fluorescein 5-maleimide (FMI) in the fluorescence polarization assay; labelled residues not stated
notes: human pyridoxine 5′-phosphate oxidase, wild type; FMI-labelled in the fluorescence polarization assay; also called FMI-labeled hPNPO; FMI-tagged hPNPO
With B1, the Kd in test [1] was determined as 1700 nM; in test [2], 300 nM; in test [3] it was 12300 nM; in test [4], 800 nM.

The term Kd denotes a measure of binding affinity in units of concentration. Higher therefore signals lower affinity.
